Source: PMC6255209 (Proceedings of the National Academy of Sciences of the …, 2018)
Blank lines part the entries; values can stand above or below the molecule they belong to.

What was measured:
YFP-β3 [1] = target: YFP-β3 (UniProt P54287); experiment: FRET or BRET
YFP-β3 [2] = target: YFP-β3 (UniProt P54287 1-484); experiment: FRET or BRET
Chain of YFP-β3 (UniProt P54287 1-484) (P54287 whole entry): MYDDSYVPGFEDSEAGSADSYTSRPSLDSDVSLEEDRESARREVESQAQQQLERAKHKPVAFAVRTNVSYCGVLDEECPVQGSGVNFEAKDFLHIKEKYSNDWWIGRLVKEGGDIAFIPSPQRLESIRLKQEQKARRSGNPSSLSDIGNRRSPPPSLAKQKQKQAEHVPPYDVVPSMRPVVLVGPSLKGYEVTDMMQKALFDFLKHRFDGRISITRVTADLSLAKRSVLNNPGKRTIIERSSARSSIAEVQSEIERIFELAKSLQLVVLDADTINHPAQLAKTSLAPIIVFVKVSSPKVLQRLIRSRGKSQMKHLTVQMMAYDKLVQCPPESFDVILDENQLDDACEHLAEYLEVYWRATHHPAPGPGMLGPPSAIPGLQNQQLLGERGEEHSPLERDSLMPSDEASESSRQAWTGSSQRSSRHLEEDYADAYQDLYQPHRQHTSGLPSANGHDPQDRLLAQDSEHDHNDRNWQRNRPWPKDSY

Chain of YFP-β3 (UniProt P54287) (P54287 whole entry): as above

FRET efficiency (YFP-β3 [1]): 0.123
Molecule: CFP-Rad (from UniProt P55042 1-308) (natural protein)

fold decrease in affinity compared with CFP-Rad (YFP-β3 [1]): 8 fold
Molecule: CFP-Rad[R208A/L235A] (from UniProt P55042 1-308) (natural protein)

fold decrease in affinity compared with WT Rem (YFP-β3 [2]): 5 fold
B1: CFP-Rem[R200A/L227A] (natural protein, UniProt O35929 1-297, looked up)
chain: MTLNTQQEAKTTLRRRASTPLPLSSRGHQPGRLCTAPSAPSQHPRLGQSVSLNPPVRKPSPAQDGWSSESSDSEGSWEALYRVVLLGDPGVGKTSLASLFAEKQDRDPHEQLGGVYERTLSVDGEDTTLVVMDTWEAEKLDESWCQESCLQAGSAYVIVYSIADRSSFESASELRIQLRRTHQANHVPIILVGNKADLAACREVSVEEGRACAVVFDCKFIETSATAQHNVTELFEGVVRQLRLRRQDNAAPETPSPRRRASLGQRARRFLARLTARSARRRALKARSKSCHNLAVL
